Legend:
Human ENTPD1 = molecular target: T1, Human ENTPD1 (Homo sapiens, UniProt P49961); experiment: Cross reactivity: FACS binding to human ENTPD1 expressing NIH/3T3 cells; details: NIH/3T3-ENTPD1 cells, 50 nM antibody
T1 construct: expressed in transfected cells; host or cells: NIH/3T3 (retroviral transduction, FACS-sorted)
T1 sequence (P49961 1-510): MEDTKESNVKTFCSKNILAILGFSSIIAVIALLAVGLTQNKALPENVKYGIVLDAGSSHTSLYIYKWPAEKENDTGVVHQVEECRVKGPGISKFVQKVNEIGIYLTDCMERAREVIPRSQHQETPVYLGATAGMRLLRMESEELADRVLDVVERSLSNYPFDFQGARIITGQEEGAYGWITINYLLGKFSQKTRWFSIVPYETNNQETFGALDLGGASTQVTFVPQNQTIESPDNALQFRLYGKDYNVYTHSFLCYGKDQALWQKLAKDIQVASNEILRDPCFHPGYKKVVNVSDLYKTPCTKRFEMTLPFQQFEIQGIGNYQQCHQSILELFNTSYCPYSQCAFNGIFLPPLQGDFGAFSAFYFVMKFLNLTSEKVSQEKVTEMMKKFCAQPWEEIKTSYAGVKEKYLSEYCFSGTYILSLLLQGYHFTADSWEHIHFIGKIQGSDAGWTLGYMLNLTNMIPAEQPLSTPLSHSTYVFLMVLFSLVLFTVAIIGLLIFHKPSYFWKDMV
Protocol: FACS screening: Specific binding of candidate antibodies to endogenously expressed ENTPD2 was assessed by flow cytometry. Cells were rinsed thoroughly with 1×PBS and treated with Accutase (Millipore #SCR005) to lift from growth plates and resuspended at approximately 1×10^5 cells/90 μL in 1× FACS buffer (2% FBS+0.1% NaN3 in PBS). In a 96-well U-bottom plate, 10 μL of 10× antibody solution in FACS buffer was pre-seeded and 90 μL of cell suspension was added. Cell were incubated for 30 minutes at 4° C., washed 1× with cold PBS and resuspended in 100 μL of 1:500 secondary antibody 1× FACS buffer (Allophycocyanin conjugated F(ab′)2 goat anti-human IgG, Fcγ specific; Jackson Immunoresearch, Cat#109-136-098). After additional incubation for 15 min at 4° C., cells were washed twice with PBS and resuspended in 100 μL of 1×FACS buffer with 4 μg/mL propidium iodide (Life Technologies, Cat#P3566). Geometric mean fluorescence intensity was calculated on live single cells using FlowJo software.
Cross reactivity Human ENTPD1 (NP_001767) expressing NIH/3T3 cells were generated using a retroviral transduction approach. 72 hrs post transduction, engineered cells were stained with the anti-Human CD39/ENTPD1 APC-conjugated Antibody (R&D systems, Minneapolis, Minn.) and live cells that expressed human ENTPD1 were separated from the rest of the population via fluorescence activated cell sorting. […]

B16LM3 tumor model = experiment: Syngeneic B16LM3 tumor model, combination with anti-PD-1 Ab; format: in vivo, C57BL/6 mice; details: mAb13 15 mg/kg in combination with anti-PD-1 Ab 10 mg/kg i.p., days 1, 5, 8, 12, 15; relative to No Treatment, Isotype Control or anti-PD-1 Ab
Protocol: B16LM3 model was established in female C57BL/6 mice by subcutaneous injection of 0.5×10^6 cells into the right flank of each mouse. The day after implant mice were randomized into treatment groups (n=10 per group). Mice received treatments of either anti-mouse ENTPD2 mAb13 or a non-specific mIgG2a isotype control (clone MOPC-173, BioLegend, San Diego, Calif.) at a final dose 15 mg/kg on Day 1, 5, 8, 12, 15.
Anti-PD-1 Ab (clone RMP1-14 Bio X Cell, West Lebanon, N.H.) or non-specific rIgG2a isotype control (clone RTK2758, BioLegend, San Diego, Calif.) were delivered i.p. at a final dose of 10 mg/kg on days 1, 5, 8, 12, 15. All doses were adjusted to individual mouse body weights.

B16F10 tumor model = experiment: Syngeneic B16F10 tumor model, combination with anti-PD-1 Ab; tumor T cell influx by flow cytometry; format: in vivo, C57BL/6 mice
Protocol: B16F10 model was established in female C57BL/6 mice by subcutaneous injection of 0.5×10^6 cells into the right flank of each mouse. On day 7 once tumors reached approximately 30 mm^3, mice were randomized according to tumor volume into treatment groups (n=10 per group). Mice received treatment of either anti-mouse ENTPD2 mAb13 at a final dose 15 mg/kg, anti-PD-1 Ab (clone RMP1-14 Bio X Cell, West Lebanon, N.H.) i.p. at a final dose of 10 mg/kg or the combination of both treatments on days 1, 5, and 8. All doses were adjusted to individual mouse body weights.
In order to understand the impact of treatments on the tumor microenvironment, mice were euthanized on day 8 and tumors were dissociated in HyClone RPMI1640 media (GE Healthcare, Pittsburg, Pa.) using gentleMacs C-tubes (Miltenyi Biotec, Auburn, Calif.) on the gentleMacs Octo Dissociator (Miltenyi Biotec, Auburn, Calif.). Approximately 2×10^6 dissociated tumor cells were blocked with rat anti-mouse CD16/CD32 Ab (Biolegend, San Diego, Calif.) to reduce non-specific FcγRIII/II binding and subsequently stained with the following cocktail of Abs: rat anti-mouse CD45-BUV395 (clone 30-F11) (BD Biosciences, San Jose, Calif.), rat anti-mouse CD8a-BUV737 (clone 53-6.7) (BD Biosciences, San Jose, Calif.), rat anti-mouse CD4-BV510 (clone RM4-5) (BD Bioscience, San Jose, Calif.), anti-mouse CD69-PercPCy5.5 (clone H1-2F3) (Biolegend, San Diego, Calif.) and rat anti-mouse CD25-eFluor450 (clone eBio3C7) (eBioscience, San Diego, Calif.) at the manufacturers' recommended dilutions. All incubations and washes were performed in FACS Buffer composed of 1× HyClone Phosphate Buffered Saline (GE Healthcare, Pittsburg, PA), 1% HyClone Fetal Bovine Serum (GE Healthcare, Pittsburg, Pa.), 2 mM EDTA (ThermoFisher, Waltham Mass.). After staining with the cell surface antigen antibody cocktail, dissociated tumor cells were washed in FACS buffer, fixed and permeabilized using the eBioscience Foxp3/Transcription Factor Staining Buffer Kit (ThermoFisher, Waltham Mass.) to allow for intracellular staining with the mouse anti-mouse FOXP3-eFluor660 (clone 150D/E4) (eBioscience, San Diego, Calif.).

[1] = combination with anti-PD-1 Ab, tumor, day 8

Row | Molecule | Apparent FACS binding at 50 nM (Human ENTPD1) | mouse survival (B16LM3 tumor model) | anti-tumor efficacy (B16F10 tumor model; alone, mAb13 15 mg/kg, anti-PD-1 Ab 10 mg/kg i.p., days 1, 5, 8) | tumor growth relative to No Treatment control (B16F10 tumor model; combination of mAb13 15 mg/kg and anti-PD-1 Ab 10 mg/kg) | influx of activated CD4 T-helper cells (CD45+ CD8-CD4+ FOXP3-CD69+ CD25+), increase vs No Treatment (B16F10 tumor model; [1]) | influx of activated CD8 T cells (CD45+ CD4-CD8+ CD69+ CD25+), change vs No Treatment (B16F10 tumor model; [1])
1 | mAb7: humanized anti-human ENTPD2 antibody from mAb17; VH SEQ ID NO: 25, VL SEQ ID NO: 78 (antibody, V domains shown) VH: QVQLVQSGAEVVKPGASVKISCKASGYTFTDYNMDWVKQAPGQRLEWIGDINPKYDISTYNQQFKGKATITVDKSASTAYMELSSLRSEDTAVYYCARRGFFLYYGINYYYFDVWGQGTLVTVSS VL: EIVLTQSPATLSASPGEEITLSCSASSSVSYIHWYQQKPGQAPRLLIYSTSNLASGIPARFSGSGSGTFYTLTISSVEPEDAAVYYCHQWSSYPWTFGGGTKLEIK | No binding |  |  |  |  | 
2 | mAb13: anti-mouse ENTPD2 antibody; HC SEQ ID NO: 193, LC SEQ ID NO: 204 (antibody) heavy: QVQLVQSGAELKQPGQSVKISCKASGYTFTHYGMNWVKQAPGQGLKWMGWINTDTGNPTYADDFKGRFVFSLDTSVSTAYLQISNLKNEDTATYYCVRYGTLYSGYGFFFDSWGQGTLVTVSSAKTTAPSVYPLAPVCGDTTGSSVTLGCLVKGYFPEPVTLTWNSGSLSSGVHTFPAVLQSDLYTLSSSVTVTSSTWPSQSITCNVAHPASSTKVDKKIEPRGPTIKPCPPCKCPAPNLLGGPSVFIFPPKIKDVLMISLSPIVTCVVVDVSEDDPDVQISWFVNNVEVHTAQTQTHREDYNSTLRVVSALPIQHQDWMSGKEFKCKVNNKDLPAPIERTISKPKGSVRAPQVYVLPPPEEEMTKKQVTLTCMVTDFMPEDIYVEWTNNGKTELNYKNTEPVLDSDGSYFMYSKLRVEKKNWVERNSYSCSVVHEGLHNHHTTKSFSRTPGK light: DIMMTQSPSSLSVSAGEKATITCKSSQSLFNSNTNKNYLNWYLQKPGQSPKLLFYYASTRHTGVPDRFIGSGSGTDFTLTITSVQDEDLADYYCQQWYSYPWTFGPGTKLEIKRADAAPTVSIFPPSSEQLTSGGASVVCFLNNFYPKDINVKWKIDGSERQNGVLNSWTDQDSKDSTYSMSSTLTLTKDEYERHNSYTCEATHKTSTSPIVKSFNRNEC |  | significantly extended mouse survival | No significant anti-tumor efficacy | significant reduction in tumor growth | 7.0 -fold | 5.8 -fold

Reference: patent publication US20220348651A1, “ENTPD2 ANTIBODIES, COMBINATION THERAPIES, AND METHODS OF USING THE ANTIBODIES AND COMBINATION THERAPIES” (Novartis AG, priority 2019, published 2022)
